This is an account of results in publication PMC9768791 (2022).

Assay [1] has as its target T1, KBTBD3p.T293A peptide on HLA-B*35:01 (human).
T1 peptide: RPSTAEKYIF
Put plainly: activation reporter or marker.

In assay [2] the target is T2, ETNK1p.Q233L peptide on HLA-C*07:01 (human).
T2 peptide: FRLIARLL
In words: activation reporter or marker.

B1: TCR1364 (TCR, V domains shown)
Valpha: GQNIDQPTEMTATEGAIVQINCTYQTSGFNGLFWYQQHAGEAPTFLSYNVLDGLEEKGRFSSFLSRSKGYSYLLLKELQMKDSASYLCAVKGDYKLSFGAGTTVTVRA
Vbeta: DTGVSQNPRHKITKRGQNVTFRCDPISEHNRLYWYRQTLGQGPEFLTYFQNEAQLEKSRLLSDRFSAERPKGSFSTLEIQRTEQGDSAMYLCASSDRSYNEQFFGPGTRLTVL
For the molecule B1, the binding result in assay [1] is on record as “recognises”.

B2: TCR1285 (TCR, V domains shown)
Valpha: DAKTTQPPSMDCAEGRAANLPCNHSTISGNEYVYWYRQIHSQGPQYIIHGLKNNETNEMASLIITEDRKSSTLILPHATLRDTAVYYCIVRLAPYSGNTPLVFGKGTRLSVIA
Vbeta: DAGVTQSPTHLIKTRGQQVTLRCSPKSGHDTVSWYQQALGQGPQFIFQYYEEEERQRGNFPDRFSGHQFPNYSSELNVNALLLGDSALYLCASISGFMGLMNTEAFFGQGTRLTVV
Consider B2, for which the binding result in assay [2] is “recognises”.
